Reference: US12679878B2, “CRF2 receptor agonists and their use in therapy” (SANOFI, priority 2020, dated 2026)
Starred links: 1 amine or outer side, 2 acyl side, 3 side chain; linkers in the order of their positions; H or OH if unused. Non-standard residues stand in square brackets, D forms with d. Groups on a side chain read outwards from the residue. No end group written: not given here. *: point of attachment. C18 diacid = O=C(O)CCCCCCCCCCCCCCCCC(=O)*; γGlu = O=C(O)[C@H](CCC(=O)[*:2])N[*:1]; AEEA = NCCOCCOCC(=O)O; Aib = CC(C)(N)C(=O)O

Molecular target: T1, CRF1R receptor (anti-target) (UniProt P34998 24-415, limits assumed)
T1 sequence (looked up): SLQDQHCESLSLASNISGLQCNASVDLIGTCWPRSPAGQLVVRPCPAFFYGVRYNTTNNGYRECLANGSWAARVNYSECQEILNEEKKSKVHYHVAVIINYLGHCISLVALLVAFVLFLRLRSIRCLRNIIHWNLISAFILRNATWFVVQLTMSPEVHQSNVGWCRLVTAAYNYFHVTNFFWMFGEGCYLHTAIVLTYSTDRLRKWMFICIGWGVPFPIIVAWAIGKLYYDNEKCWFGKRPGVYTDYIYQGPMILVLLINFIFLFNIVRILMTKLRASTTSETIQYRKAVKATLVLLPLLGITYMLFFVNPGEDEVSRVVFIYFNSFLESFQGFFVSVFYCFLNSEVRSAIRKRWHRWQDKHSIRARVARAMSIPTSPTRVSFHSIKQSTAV
Assay: cell-based or functional assay

B1: peptide of SEQ ID NO: 89 (peptide)
peptide: IVLSLDVPIKLK([AEEA-AEEA-γGlu-C18 diacid])QILLKQERQKKQREQAKTN[Aib]QILAQV-NH2
modifications: N-terminus assumed
SMILES: CC[C@H](C)[C@H](N)C(=O)N[C@H](C(=O)N[C@@H](CC(C)C)C(=O)N[C@@H](CO)C(=O)N[C@@H](CC(C)C)C(=O)N[C@@H](CC(=O)O)C(=O)N[C@H](C(=O)N1CCC[C@H]1C(=O)N[C@H](C(=O)N[C@@H](CCCCN)C(=O)N[C@@H](CC(C)C)C(=O)N[C@@H](CCCCNC(=O)COCCOCCNC(=O)COCCOCCNC(=O)CC[C@H](NC(=O)CCCCCCCCCCCCCCCCC(=O)O)C(=O)O)C(=O)N[C@@H](CCC(N)=O)C(=O)N[C@H](C(=O)N[C@@H](CC(C)C)C(=O)N[C@@H](CC(C)C)C(=O)N[C@@H](CCCCN)C(=O)N[C@@H](CCC(N)=O)C(=O)N[C@@H](CCC(=O)O)C(=O)N[C@@H](CCCNC(=N)N)C(=O)N[C@@H](CCC(N)=O)C(=O)N[C@@H](CCCCN)C(=O)N[C@@H](CCCCN)C(=O)N[C@@H](CCC(N)=O)C(=O)N[C@@H](CCCNC(=N)N)C(=O)N[C@@H](CCC(=O)O)C(=O)N[C@@H](CCC(N)=O)C(=O)N[C@@H](C)C(=O)N[C@@H](CCCCN)C(=O)N[C@H](C(=O)N[C@@H](CC(N)=O)C(=O)NC(C)(C)C(=O)N[C@@H](CCC(N)=O)C(=O)N[C@H](C(=O)N[C@@H](CC(C)C)C(=O)N[C@@H](C)C(=O)N[C@@H](CCC(N)=O)C(=O)N[C@H](C(N)=O)C(C)C)[C@@H](C)CC)[C@@H](C)O)[C@@H](C)CC)[C@@H](C)CC)C(C)C)C(C)C
EC50 [nM] 0% HSA (cAMP, HTRF): > 100 nM | Emax (%) (100% = Sauvagine at 100 nM): 3.7%

B2: peptide of SEQ ID NO: 96 (peptide)
peptide: IVLSLDVPIKLK([AEEA-AEEA-γGlu-C18 diacid])QILLKQERQKKEREQAETNKQILAQV-NH2
modifications: N-terminus assumed
SMILES: CC[C@H](C)[C@H](N)C(=O)N[C@H](C(=O)N[C@@H](CC(C)C)C(=O)N[C@@H](CO)C(=O)N[C@@H](CC(C)C)C(=O)N[C@@H](CC(=O)O)C(=O)N[C@H](C(=O)N1CCC[C@H]1C(=O)N[C@H](C(=O)N[C@@H](CCCCN)C(=O)N[C@@H](CC(C)C)C(=O)N[C@@H](CCCCNC(=O)COCCOCCNC(=O)COCCOCCNC(=O)CC[C@H](NC(=O)CCCCCCCCCCCCCCCCC(=O)O)C(=O)O)C(=O)N[C@@H](CCC(N)=O)C(=O)N[C@H](C(=O)N[C@@H](CC(C)C)C(=O)N[C@@H](CC(C)C)C(=O)N[C@@H](CCCCN)C(=O)N[C@@H](CCC(N)=O)C(=O)N[C@@H](CCC(=O)O)C(=O)N[C@@H](CCCNC(=N)N)C(=O)N[C@@H](CCC(N)=O)C(=O)N[C@@H](CCCCN)C(=O)N[C@@H](CCCCN)C(=O)N[C@@H](CCC(=O)O)C(=O)N[C@@H](CCCNC(=N)N)C(=O)N[C@@H](CCC(=O)O)C(=O)N[C@@H](CCC(N)=O)C(=O)N[C@@H](C)C(=O)N[C@@H](CCC(=O)O)C(=O)N[C@H](C(=O)N[C@@H](CC(N)=O)C(=O)N[C@@H](CCCCN)C(=O)N[C@@H](CCC(N)=O)C(=O)N[C@H](C(=O)N[C@@H](CC(C)C)C(=O)N[C@@H](C)C(=O)N[C@@H](CCC(N)=O)C(=O)N[C@H](C(N)=O)C(C)C)[C@@H](C)CC)[C@@H](C)O)[C@@H](C)CC)[C@@H](C)CC)C(C)C)C(C)C
EC50 [nM] 0% HSA (cAMP, HTRF): > 100 nM | Emax (%) (100% = Sauvagine at 100 nM): 2.3%
